From paper PMC11737055

Target: TDP-43 (UniProt Q921F2)
Assay: anti-GFP co-IP, anti-RFP Western blot
Conditions: reference: GFP-FMRP wild type; sites S499

## FMRP (from UniProt P35922) GFP-FMRP S499A
  binding against the reference: weaker
